# Like-named read-outs stand apart in the source and are kept apart here.
# How the values were obtained:
# HLA-A*0201 (human) [1] = experiment: inhibition of binding of 125I-labelled standard peptide to purified HLA, gel filtration; conditions: remark: other sources report otherwise
# HLA-A*0201 (human) [2] = experiment: competition with 125I-labeled standard peptide for purified HLA-A*0201, gel filtration
# HLA-A*0301 (human) = experiment: competitive inhibition of 125I-labelled standard peptide binding to purified HLA-A*0301, gel filtration
# [3] = remark: other sources report otherwise
binder,measurement,setting,value
"RLCVQSTHV (modifications not checked) [HPV16 E7 peptide … (position 66, 9 amino acids)]",relative binding ratio (IC50 of standard peptide / IC50 of test peptide),HLA-A*0201 (human) [1],0.0003
"RTLEDLLMGT (modifications not checked) [HPV16 E7 peptide … (position 77, 10 amino acids)]",relative binding ratio (IC50 of standard peptide / IC50 of test peptide),HLA-A*0201 (human) [1],0.0006
AVFKDTYGL (modifications not checked) [HPV18 E1 216 peptide …],relative binding ratio (IC50 of standard peptide / IC50 of test peptide) (ratio to standard peptide),HLA-A*0201 (human) [2],0.014
CLDCKWGVLI (modifications not checked) [HPV18 E1 273 peptide …],relative binding ratio (IC50 of standard peptide / IC50 of test peptide) (ratio to standard peptide),HLA-A*0201 (human) [2],0.0002
"FLNTLSFV (modifications not checked) [HPV18 E7 peptide FLNTLSFV (position 90, 8 amino acids)]",relative binding ratio (IC50 of standard peptide / IC50 of test peptide) (ratio to standard peptide),HLA-A*0201 (human) [2],0.0079
"GVNHQHLPA (modifications not checked) [HPV18 E7 peptide … (position 43, 9 amino acids)]",relative binding ratio (IC50 of standard peptide / IC50 of test peptide) (ratio to standard peptide),HLA-A*0201 (human) [2],0.0001
"HLEPQNEI (modifications not checked) [HPV18 E7 peptide HLEPQNEI (position 14, 8 amino acids)]",relative binding ratio (IC50 of standard peptide / IC50 of test peptide) (ratio to standard peptide),HLA-A*0201 (human) [2],0.0001
"HLEPQNEIPV (modifications not checked) [HPV18 E7 peptide … (position 14, 10 amino acids)]",relative binding ratio (IC50 of standard peptide / IC50 of test peptide) (ratio to standard peptide),HLA-A*0201 (human) [2],0.0001
"KLVVESSA (modifications not checked) [HPV18 E7 peptide KLVVESSA (position 73, 8 amino acids)]",relative binding ratio (IC50 of standard peptide / IC50 of test peptide) (ratio to standard peptide),HLA-A*0201 (human) [2],0.0001
"KLVVESSADDL (modifications not checked) [HPV18 E7 peptide … (position 73, 11 amino acids)]",relative binding ratio (IC50 of standard peptide / IC50 of test peptide) (ratio to standard peptide),HLA-A*0201 (human) [2],0.0001
"LVVESSADDL (modifications not checked) [HPV18 E7 peptide … (position 74, 10 amino acids)]",relative binding ratio (IC50 of standard peptide / IC50 of test peptide) (ratio to standard peptide),HLA-A*0201 (human) [2],0.0001
"MLCMCCKCEA (modifications not checked) [HPV18 E7 peptide … (position 61, 10 amino acids)]",relative binding ratio (IC50 of standard peptide / IC50 of test peptide) (ratio to standard peptide),HLA-A*0201 (human) [2],0.0016
"RAFQQLFLNT (modifications not checked) [HPV18 E7 peptide … (position 84, 10 amino acids)]",relative binding ratio (IC50 of standard peptide / IC50 of test peptide) (ratio to standard peptide),HLA-A*0201 (human) [2],0.0003
"VLHLEPQNEI (modifications not checked) [HPV18 E7 peptide … (position 12, 10 amino acids)]",relative binding ratio (IC50 of standard peptide / IC50 of test peptide) (ratio to standard peptide),HLA-A*0201 (human) [2],0.0001
"VVESSADDL (modifications not checked) [HPV18 E7 peptide … (position 75, 9 amino acids)]",relative binding ratio (IC50 of standard peptide / IC50 of test peptide) (ratio to standard peptide),HLA-A*0201 (human) [2],0.0003
VYRDGNPY (modifications not checked) [HPV16 E6 60 VYRDGNPY],relative binding ratio (IC50 of standard peptide / IC50 of test peptide),HLA-A*2402 (human),0.0001
FYSRIREL (modifications not checked) [HPV18 E6 71-78 peptide FYSRIREL],relative binding ratio (IC50 of standard peptide / IC50 of test peptide) (ratio to standard peptide),HLA-A*2402 (human),0.026
FYSRIRELRHY (modifications not checked) [HPV18 E6 71-81 peptide …],relative binding ratio (IC50 of standard peptide / IC50 of test peptide) (ratio to standard peptide),HLA-A*2402 (human),0.0052
KLPDLCTEL (modifications not checked) [HPV18 E6 13-21 peptide …],relative binding ratio (IC50 of standard peptide / IC50 of test peptide) (ratio to standard peptide),HLA-A*2402 (human); [3],0.0013
LYNLLIRCL (modifications not checked) [HPV18 E6 98-106 peptide …],relative binding ratio (IC50 of standard peptide / IC50 of test peptide) (ratio to standard peptide),HLA-A*2402 (human),0.0001
FYSRIREL (modifications not checked) [HPV45 E6 71 peptide FYSRIREL (SEQ ID NO: 15714)],relative binding ratio (IC50 of standard peptide / IC50 of test peptide),HLA-A*2402 (human),0.026
KLPDLCTEL (modifications not checked) [HPV45 E6 13 peptide … (SEQ ID NO: 15726)],relative binding ratio (IC50 of standard peptide / IC50 of test peptide),HLA-A*2402 (human); [3],0.0013
LYNLLIRCL (modifications not checked) [HPV45 E6 98 peptide … (SEQ ID NO: 15730)],relative binding ratio (IC50 of standard peptide / IC50 of test peptide),HLA-A*2402 (human),0.0001
PYKLPDLCTEL (modifications not checked) [HPV45 E6 11 peptide … (SEQ ID NO: 15737)],relative binding ratio (IC50 of standard peptide / IC50 of test peptide),HLA-A*2402 (human),0.0064
YCKQQLLRR (modifications not checked) [HPV16 E6 39 …],relative binding ratio (IC50 of standard peptide / IC50 of test peptide) (ratio to standard peptide),HLA-A*0301 (human),0.0003
CCKCDSTLR (modifications not checked) [HPV16 E7 58 …],relative binding ratio (IC50 of standard peptide / IC50 of test peptide) (ratio to standard peptide),HLA-A*0301 (human),0.0003
CVQSTHVDIR (modifications not checked) [HPV16 E7 68 …],relative binding ratio (IC50 of standard peptide / IC50 of test peptide) (ratio to standard peptide),HLA-A*0301 (human),0.0049
GIVCPICSQK (modifications not checked) [HPV16 E7 88 …],relative binding ratio (IC50 of standard peptide / IC50 of test peptide) (ratio to standard peptide),HLA-A*0301 (human); [3],0.0003

# Source: patent US7026443
